Measured values published in patent US20150210766A1 (SAMSUNG ELECTRONICS, published 2015).
Values belong to the binder of their own block, whether it stands above or below them.

Columns and labels:
Her3-Fc (R&D Systems) = Her3-Fc (R&D Systems) (UniProt P21860); assay: SPR, Biacore T100; bispecific antibody captured (about 90 to 120 RU) by human Fab binder on a CM5 chip, Her3-Fc injected at various concentrations
[1] = molecular target: T1, human c-Met/Fc fusion protein (R&D Systems) (human, UniProt P08581 25-932); assay: ELISA, human c-Met/Fc fusion protein coated on the plate, hybridoma culture added
T1 construct: Bought reagent; also called human c-Met/Fc protein; not shown: Fc part of the bought fusion protein, not described
T1 sequence (P08581 25-932 limits assumed): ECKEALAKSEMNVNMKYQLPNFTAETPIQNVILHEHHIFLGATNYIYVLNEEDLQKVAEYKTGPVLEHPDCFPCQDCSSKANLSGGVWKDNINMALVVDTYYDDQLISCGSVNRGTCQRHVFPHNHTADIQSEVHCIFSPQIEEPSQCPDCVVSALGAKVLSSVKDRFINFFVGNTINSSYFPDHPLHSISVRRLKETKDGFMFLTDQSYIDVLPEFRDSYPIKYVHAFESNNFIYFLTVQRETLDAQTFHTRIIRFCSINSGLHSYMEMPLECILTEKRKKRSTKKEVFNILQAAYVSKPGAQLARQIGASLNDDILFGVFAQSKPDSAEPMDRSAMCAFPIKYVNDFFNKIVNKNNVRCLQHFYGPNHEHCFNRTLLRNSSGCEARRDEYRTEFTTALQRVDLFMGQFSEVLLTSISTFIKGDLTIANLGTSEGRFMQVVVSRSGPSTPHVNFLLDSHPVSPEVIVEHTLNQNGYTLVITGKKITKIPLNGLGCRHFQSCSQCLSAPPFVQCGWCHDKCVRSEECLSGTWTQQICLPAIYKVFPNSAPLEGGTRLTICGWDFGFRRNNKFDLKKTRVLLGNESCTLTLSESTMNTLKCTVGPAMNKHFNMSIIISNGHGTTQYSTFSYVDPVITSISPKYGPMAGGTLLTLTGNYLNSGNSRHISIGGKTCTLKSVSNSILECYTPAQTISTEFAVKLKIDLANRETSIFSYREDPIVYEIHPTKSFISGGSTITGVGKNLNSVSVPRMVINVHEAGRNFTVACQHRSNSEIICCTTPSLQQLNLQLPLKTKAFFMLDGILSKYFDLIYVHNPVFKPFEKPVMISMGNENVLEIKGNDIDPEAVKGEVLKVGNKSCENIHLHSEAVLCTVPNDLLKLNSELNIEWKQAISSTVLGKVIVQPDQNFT
Experimental: Human c-Met/Fc fusion protein was seeded in an amount of […] (2 μg/mL)/well to microtiter plates and allowed to adhere to the surface of each well. The […] that remained unbound was removed by washing.
The hybridoma cell culture obtained in Reference Example 1.1.2 was added in an amount of […] to each well of the plates and incubated for 1 hour. The cells remaining unreacted were washed out with a sufficient amount of Tris-buffered saline and Tween 20 (TBST). Goat anti-mouse IgG-horseradish peroxidase (HRP) was added to the plates and incubated for 1 hour at room temperature. The plates were washed with a sufficient amount of TBST, followed by reacting the peroxidase with a substrate (OPD). Absorbance at 450 nm was measured on an ELISA reader.

Chain of Her3-Fc (R&D Systems) (P21860 20-643 limits assumed): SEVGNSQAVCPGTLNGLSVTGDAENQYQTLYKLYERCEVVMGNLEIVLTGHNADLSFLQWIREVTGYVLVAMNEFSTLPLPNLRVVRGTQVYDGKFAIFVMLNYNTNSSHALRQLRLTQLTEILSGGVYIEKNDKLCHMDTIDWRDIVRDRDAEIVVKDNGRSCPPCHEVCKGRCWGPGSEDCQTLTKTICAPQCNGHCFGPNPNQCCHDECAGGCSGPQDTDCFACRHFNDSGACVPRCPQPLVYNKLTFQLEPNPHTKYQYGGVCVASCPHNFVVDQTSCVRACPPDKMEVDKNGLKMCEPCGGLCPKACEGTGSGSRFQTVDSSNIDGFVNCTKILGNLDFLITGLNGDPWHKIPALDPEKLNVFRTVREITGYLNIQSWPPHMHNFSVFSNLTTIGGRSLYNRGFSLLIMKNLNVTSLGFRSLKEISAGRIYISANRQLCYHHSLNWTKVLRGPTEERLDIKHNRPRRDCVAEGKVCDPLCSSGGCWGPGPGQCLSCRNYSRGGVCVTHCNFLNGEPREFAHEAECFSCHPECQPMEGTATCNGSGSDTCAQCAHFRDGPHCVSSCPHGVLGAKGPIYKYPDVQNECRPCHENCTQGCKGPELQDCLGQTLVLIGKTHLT

- Kd (Her3-Fc (R&D Systems)): 0.55 nM
B1: MH3-05, anti-c-Met/anti-Her3 bispecific antibody in which the modified anti-Her3 scFv is fused at the c-terminal of L3-1Y-IgG2 (bispecific antibody, part only; not given: nothing needed for Her3 binding, not shown: another chain or arm of the molecule; small tags and cut ends)
heavy: EVQLVESGGGLVQPGGSLRLSCAASGFTFTDYYMSWVRQAPGKGLEWLGFIRNKANGYTTEYSASVKGRFTISRDNSKNTLYLQMNSLRAEDTAVYYCARDNWFAYWGQGTLVTVSSASTKGPSVFPLAPCSRSTSESTAALGCLVKDYFPEPVTVSWNSGALTSGVHTFPAVLQSSGLYSLSSVVTVPSSNFGTQTYTCNVDHKPSNTKVDKTVERKCCVECPPCPAPPVAGPSVFLFPPKPKDTLMISRTPEVTCVVVDVSHEDPEVQFNWYVDGVEVHNAKTKPREEQFNSTFRVVSVLTVVHQDWLNGKEYKCKVSNKGLPAPIEKTISKTKGQPREPQVYTLPPSREEMTKNQVSLTCLVKGFYPSDIAVEWESNGQPENNYKTTPPMLDSDGSFFLYSKLTVDKSRWQQGNVFSCSVMHEALHNHYTQKSLSLSPGKGGGGSGGGGSQVQLQESGGGLVKPGGSLRLSCAASGFTFSSYSMNWVRQAPGKGLEWVSSISSSSSYIYYADSVKGRFTISRDNAKNSLYLQMNSLRAEDTAVYYCAREDLTPFDYWGQGTLVTVSS
VL: LPVLTQPPSVSVAPGQTARITCGGDNIGSKSVHWYQQKPGQAPVLVVYDDSDRPSGIPERISGSNSGNTATLTISRVEAGDEADFYCQVWDNSVDLLFGGGTKLTVL
light: DIQMTQSPSSLSASVGDRVTITCKSSQSLLASGNQNNYLAWYQQKPGKAPKMLIIWASTRVSGVPSRFSGSGSGTDFTLTISSLQPEDFATYYCQQSYSRPYTFGQGTKVEIKRTVAAPSVFIFPPSDEQLKSGTASVVCLLNNFYPREAKVQWKVDNALQSGNSQESVTEQDSKDSTYSLSSTLTLSKADYEKHKVYACEVTHQGLSSPVTKSFNRGEC
modifications: In the real molecule the scFv-VL chain is joined covalently to the C-terminus of the heavy chain's VH (SEQ 115) through the undisclosed linker. It is written as a separate chain only because that linker has no letters.

- binding result [1]: binds
B2: AbF46, mouse monoclonal antibody to c-Met (hybridoma KCLRF-BP-00220) (antibody, V domains shown)
VH: EVKLVESGGGLVQPGGSLRLSCATSGFTFTDYYMSWVRQPPGKALEWLGFIRNKANGYTTEYSASVKGRFTISRDNSQSILYLQMDTLRAEDSATYYCARDNWFAYWGQGTLVTVSA
VL: DILMTQSPSSLTVSAGEKVTMSCKSSQSLLASGNQNNYLAWHQQKPGRSPKMLIIWASTRVSGVPDRFIGSGSGTDFTLTINSVQAEDLAVYYCQQSYSAPLTFGAGTKLELK
notes: Tested as hybridoma culture in the screening ELISA; the single clone selected produces AbF46; also called mouse antibody AbF46
